The values that follow come from article PMC3989777 (Cell Reports, 2014).

The target of assay [1] is PIH1D1 (1-180) (Homo sapiens, UniProt Q9NWS0). The assay is described as follows: ITC of phosphopeptide binding to PIH1D1 1-180.
Assay [2] deals with PIH1D1 1–180 (human, UniProt Q9NWS0 1-180). The assay is described as follows: ITC.

Where a SMILES comes first, the peptide text is derived from it. Where no end group is shown, it is not given here. [ ]: non-standard residue; d: D form. pS = N[C@@H](COP(=O)(O)O)C(=O)O

Sequence of PIH1D1 1–180 (Q9NWS0 1-180): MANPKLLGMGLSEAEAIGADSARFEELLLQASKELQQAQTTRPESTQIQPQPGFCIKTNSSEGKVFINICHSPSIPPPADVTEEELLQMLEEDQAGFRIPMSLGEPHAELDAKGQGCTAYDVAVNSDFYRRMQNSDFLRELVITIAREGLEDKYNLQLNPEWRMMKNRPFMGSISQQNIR
Sequence of PIH1D1 (1-180) (Q9NWS0 1-180): as above

Regarding `CC(C)C[C@H](NC(=O)[C@H](CC(=O)O)NC(=O)[C@H](COP(=O)(O)O)NC(=O)[C@H](CC(=O)O)NC(=O)[C@H](CO)NC(=O)CNC(=O)[C@H](C)NC(=O)[C@@H](N)Cc1ccc(O)cc1)C(=O)N[C@@H](CC(=O)O)C(=O)N[C@@H](COP(=O)(O)O)C(=O)N[C@@H](CC(=O)O)C(=O)N[C@@H](CC(=O)O)C(=O)N[C@@H](CCC(=O)O)C(=O)N[C@@H](Cc1ccccc1)C(=O)N[C@H](C(=O)N1CCC[C@H]1C(=O)N[C@@H](Cc1ccc(O)cc1)C(N)=O)C(C)C` (H-YAGSD[pS]DLD[pS]DDEFVPY-NH2), the “higher affinity relative to the TEL2 peptide phosphorylated on Ser491” value in assay [1] is given as 2- to 3 fold.

B1: ECD peptide RPNESDpS505DDLDDY (peptide)
peptide: RPNESD[pS]DDLDDY
In turn, B1 had a Kd in assay [2] of 16 µM.

B2: TEL2 peptide phosphorylated on Ser491 (peptide)
chain: YAGSDSDLD[pS]DDEFVPY
modifications: also: phosphoserine at Ser491, place not mappable
Take B2: in assay [2], the Kd turned out to be 3.5 µM.
